Where two headings read alike, the source gives them in different places.
How the values were obtained:
[1] = target: NaChBac (Bacillus halodurans); assay: cryo-EM structure
[2] = target: NaChBac (Bacillus halodurans); assay: cryo-EM structure; remark: listed apart in the source

stoichiometry N [1]: 4
stoichiometry N [2]: 4
Substance: NaChBac (natural protein)

From article doi:10.1101/2020.04.16.045674
